In one series the target is DNA polymerase beta L22P (UniProt P06746 1-335, L22P). The series is described as follows: EMSA.
Series [1] concerns the target T1, DNA polymerase beta WT (UniProt P06746 1-335). Description: EMSA.
The target in series [2] is T1, DNA polymerase beta WT. Description: NaBH4 trapping of Schiff base complex.

B1: 45AGR (recessed) (dsDNA)
DNA 1: GCCTCGCAGCCGTCCAACCAAC
DNA 2: GGACGGCATTGGATCGAGGTTGAGTTGGTTGGACGGCTGCGAGGC
modifications: template 5' phosphate
Usually Kd stands for the concentration at which binding is half-saturated. B1: the Kd came out at 455 ± 100 nM in the series with DNA polymerase beta L22P and 84 ± 18 nM with DNA polymerase beta WT [1].

B2: 45AG (1-nt gapped, 5'-phosphorylated downstream) (dsDNA)
DNA 1: GCCTCGCAGCCGTCCAACCAAC
DNA 2: CAACCTCGATCCAATGCCGTCC
DNA 3: B1 DNA 2
modifications: 5' phosphate on downstream oligo (S2) and template
As for B2, the figures for the Kd in the series with DNA polymerase beta L22P and with DNA polymerase beta WT [1] were 229 ± 50 nM and 12 ± 2 nM, respectively.

B3: 45AG1bpDNP (1-nt gapped, non-phosphorylated downstream) (dsDNA)
DNA 1: GCCTCGCAGCCGTCCAACCAAC
DNA 2: CAACCTCGATCCAATGCCGTCC
DNA 3: B1 DNA 2
modifications: no 5' phosphate on downstream oligo (S2); template 5' phosphate
As to B3, the Kd in the series with DNA polymerase beta L22P came to 291 ± 45 nM; in the series with DNA polymerase beta WT [1], 20 ± 3 nM.

B4: LPSD incised 5'-dRP substrate (UDG and APE1 treated) (dsDNA)
DNA 1: CTGCAGCTGATGCGC
DNA 2: GTACGGATCCCCGGGTAC
DNA 3: GTACCCGGGGATCCGTACGGCGCATCAGCTGCAG
modifications: uracil (position 16 of S8) removed by UDG; APE1 nick leaves 3'-OH and 5'-dRP on S8[17-34]
For B4, the binding result with DNA polymerase beta WT [2] is recorded as “binds”.

These data come from PMC2241857.
